Results on 3 substances are retold here after article doi:10.1101/2020.06.17.157982.

Sequence of biotinylated human ACE2 ectodomain, which contains its natural dimerization domain (ACROBiosystems AC2-H82E6) (human) (Q9BYF1 18-740): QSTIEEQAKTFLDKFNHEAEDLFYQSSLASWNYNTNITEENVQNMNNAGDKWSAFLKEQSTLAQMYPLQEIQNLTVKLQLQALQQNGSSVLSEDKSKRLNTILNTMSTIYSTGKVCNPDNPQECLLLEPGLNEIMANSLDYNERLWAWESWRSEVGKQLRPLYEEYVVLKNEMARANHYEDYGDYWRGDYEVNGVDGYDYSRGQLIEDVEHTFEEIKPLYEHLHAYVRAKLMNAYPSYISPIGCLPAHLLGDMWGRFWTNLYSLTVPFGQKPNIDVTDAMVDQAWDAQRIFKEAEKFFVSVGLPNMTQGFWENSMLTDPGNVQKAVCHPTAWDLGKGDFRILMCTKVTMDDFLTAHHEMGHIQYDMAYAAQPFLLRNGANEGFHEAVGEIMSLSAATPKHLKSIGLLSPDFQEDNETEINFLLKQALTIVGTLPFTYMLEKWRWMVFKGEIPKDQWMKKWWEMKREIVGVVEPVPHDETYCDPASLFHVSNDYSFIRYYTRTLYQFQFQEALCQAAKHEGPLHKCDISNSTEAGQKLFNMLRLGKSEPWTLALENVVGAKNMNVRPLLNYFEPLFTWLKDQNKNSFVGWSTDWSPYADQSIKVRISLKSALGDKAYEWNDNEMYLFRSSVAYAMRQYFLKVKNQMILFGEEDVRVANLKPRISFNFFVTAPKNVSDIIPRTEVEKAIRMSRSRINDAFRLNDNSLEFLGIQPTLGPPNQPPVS

This assay addresses biotinylated human ACE2 ectodomain, which contains its natural dimerization domain (ACROBiosystems AC2-H82E6) (human) (UniProt Q9BYF1). Nature of the assay: FACS. On the technique in general: In flow cytometry, cells or beads pass a laser one at a time.
Broadly, the Kd is the constant that tells how readily two partners part at equilibrium. Read a low Kd as tighter binding. In turn, WIV1 RBD, yeast-displayed had an equilibrium dissociation constant (Kd) of 0.017 nM.

The substance ZC45 RBD, yeast-displayed came in with a Kd greater than 1000 nM.

Consider ZXC21 RBD, yeast-displayed, for which the Kd is greater than 1000 nM.
